Biological target: endogenous AMPKα (5'-adenosine monophosphate-activated protein kinase, α subunit), Q13131
Assay: co-immunoprecipitation, quantified band intensity
Conditions: chain shown with the change, n=2 (WT n=3), read off a plot

Chain of endogenous AMPKα (5'-adenosine monophosphate-activated protein kinase, α subunit), Q13131 (Q13131 whole entry): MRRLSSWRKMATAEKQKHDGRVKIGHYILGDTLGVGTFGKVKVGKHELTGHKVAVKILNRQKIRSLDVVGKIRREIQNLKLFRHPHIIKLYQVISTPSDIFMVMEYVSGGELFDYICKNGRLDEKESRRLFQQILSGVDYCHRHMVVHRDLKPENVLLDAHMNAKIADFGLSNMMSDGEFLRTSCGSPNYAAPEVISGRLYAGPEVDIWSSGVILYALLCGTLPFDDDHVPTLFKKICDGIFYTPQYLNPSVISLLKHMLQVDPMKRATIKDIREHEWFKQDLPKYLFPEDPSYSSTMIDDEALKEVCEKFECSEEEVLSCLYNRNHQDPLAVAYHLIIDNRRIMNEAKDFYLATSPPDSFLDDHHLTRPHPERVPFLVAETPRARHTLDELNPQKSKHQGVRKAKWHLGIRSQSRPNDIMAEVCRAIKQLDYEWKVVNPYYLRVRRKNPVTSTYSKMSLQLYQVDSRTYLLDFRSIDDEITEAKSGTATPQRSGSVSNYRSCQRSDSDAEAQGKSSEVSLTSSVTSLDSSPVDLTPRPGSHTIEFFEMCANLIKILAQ

response (relative AMPK-ULK1 interaction) (amino acids +, A769662 +, parent: est. 1.2): 1
response (relative AMPK-ULK1 interaction) (amino acids +, A769662 -, parent: est. 1.0): 0.4
response (relative AMPK-ULK1 interaction) (amino acids -, A769662 +, parent: est. 1.1): 0.15
response (relative AMPK-ULK1 interaction) (amino acids -, A769662 -, parent: est. 0.25): 0.1
B1: myc-tagged ULK1 (UNC-51 like kinase 1), wild type, O75385 S556A; T660A (protein)
chain: MEPGRGGTETVGKFEFSRKDLIGHGAFAVVFKGRHREKHDLEVAVKCINKKNLAKSQTLLGKEIKILKELKHENIVALYDFQEMANSVYLVMEYCNGGDLADYLHAMRTLSEDTIRLFLQQIAGAMRLLHSKGIIHRDLKPQNILLSNPAGRRANPNSIRVKIADFGFARYLQSNMMAATLCGSPMYMAPEVIMSQHYDGKADLWSIGTIVYQCLTGKAPFQASSPQDLRLFYEKNKTLVPTIPRETSAPLRQLLLALLQRNHKDRMDFDEFFHHPFLDASPSVRKSPPVPVPSYPSSGSGSSSSSSSTSHLASPPSLGEMQQLQKTLASPADTAGFLHSSRDSGGSKDSSCDTDDFVMVPAQFPGDLVAEAPSAKPPPDSLMCSGSSLVASAGLESHGRTPSPSPPCSSSPSPSGRAGPFSSSRCGASVPIPVPTQVQNYQRIERNLQSPTQFQTPRSSAIRRSGSTSPLGFARASPSPPAHAEHGGVLARKMSLGGGRPYTPSPQVGTIPERPGWSGTPSPQGAEMRGGRSPRPGSSAPEHSPRTSGLGCRLHAAPNLSDLHVVRPKLPKPPTDPLGAVFSPPQASPPQPSHGLQSCRNLRGSPKLPDFLQRNPLPPILGSPTKAVPSFDFPKTPSSQNLLALLARQGVVMTPPRNRALPDLSEVGPFHGQPLGPGLRPGEDPKGPFGRSFSTSRLTDLLLKAAFGTQAPDPGSTESLQEKPMEIAPSAGFGGSLHPGARAGGTSSPSPVVFTVGSPPSGSTPPQGPRTRMFSAGPTGSASSSARHLVPGPCSEAPAPELPAPGHGCSFADPITANLEGAVTFEAPDLPEETLMEQEHTEILRGLRFTLLFVQHVLEIAALKGSASEAAGGPEYQLQESVVADQISLLSREWGFAEQLVLYLKVAELLSSGLQSAIDQIRAGKLCLSSTVKQVVRRLNELYKASVVSCQGLSLRLQRFFLDKQRLLDRIHSITAERLIFSHAVQMVQSAALDEMFQHREGCVPRYHKALLLLEGLQHMLSDQADIENVTKCKLCIERRLSALLTGICA
